Data from patent US20240092892A1 (BIO THERA SOLUTIONS, published 2024).
Residue numbers refer to the chain shown, from its start. Names and notes keep the numbering of the source.

B1: IMAB362 (antibody, V domains shown)
VH: QVQLQQPGAELVRPGASVKLSCKASGYTFTSYWINWVKQRPGQGLEWIGNIYPSDSYTNYNQKFKDKATLTVDKSSSTAYMQLSSPTSEDSAVYYCTRSWRGNSFDYWGQGTTLTVSS
VL: DIVMTQSPSSLTVTAGEKVTMSCKSSQSLLNSGNQKNYLTWYQQKPGQPPKLLIYWASTRESGVPDRFTGSGSGTDFTLTISSVQAEDLAVYYCQNDYSYPFTFGSGTKLEIKR
B2: H239H-2a-K-6a (antibody, human IgG1, kappa, V domains shown)
VH: EVQLLESGGGLVQPGGSLRLSCAASGFTFSDYGMHWVRQAPGKGLEWVAYISRGRSTTYSTDTVKGRFTISRDSSKNTLYLQMNSLRAEDTAVYYCARGSYYGNAMDYWGQGTLVTVSS
VL: DIVMTQSPDSLAVSLGERATINCKSSQSLLNSGNQRNYLTWYQQKPGQPPKLLIYWASTRESGVPDRFSGSGSGTDFTLTISSLQAEDVAVYYCQSAYSYPFTFGGGTKLEIKR
notes: Humanized antibody derived from CH239H-2-K-6, human IgG1/kappa constant regions; also called H239H-2a-K-6α
B3: H239H-2b-K-6a (antibody, human IgG1, kappa, V domains shown)
VH: B2 VH with S74N
VL: B2 VL
notes: Humanized antibody derived from CH239H-2-K-6, human IgG1/kappa constant regions; also called H239H-2b-K-6α

What was measured:
[1] = target: human CLDN18.2 (human); assay: cell-based or functional assay
[2] = target: T1, human CLDN18.1 (human, UniProt P56856 1-261); assay: flow cytometry on CHO-CLDN18.1 cells
T1 construct: also called CHO-CLDN18.1 cells
T1 sequence (P56856 whole entry): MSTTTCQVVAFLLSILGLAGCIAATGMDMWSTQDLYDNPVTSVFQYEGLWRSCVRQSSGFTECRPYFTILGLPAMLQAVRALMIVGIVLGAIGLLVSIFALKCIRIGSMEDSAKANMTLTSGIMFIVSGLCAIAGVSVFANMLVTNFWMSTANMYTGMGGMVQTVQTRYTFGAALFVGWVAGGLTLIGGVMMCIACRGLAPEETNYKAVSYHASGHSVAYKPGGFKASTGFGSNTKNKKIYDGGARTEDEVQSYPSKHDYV
Experimental: Flow cytometry was used to detect the binding capacity of anti-CLDN18.2 antibodies to cells expressing CLDN18.2, and the specificity of not binding to CLDN18.1 of the antibody was further detected. The experimental procedure overview was as follows: CLDN18.2 positive cells (KATOIII or CHO-CLDN18.2) and negative cells (CHO-CLDN18.1) were collected, washed once with PBS, resuspended in PBS, and plated on a 96-well V-bottom plate (Cat. No. 3897, Costar) at 0.1 million cells/50 μL/well. The antibody was pre-diluted to 333.2 nM with PBS, then diluted 2-fold with 9 gradients, added at 50 μL/well to the cells in the 96-well V-bottom plate described above, and mixed well (final antibody concentrations: 166.6, 83.3, 41.6, 20.8, 10.4, 5.2, 2.6, 1.3, 0.65, and 0.325 nM). The mixture was incubated at 4° C. for 1 h and washed twice with PBS. Then 100 μL of 1:500 diluted goat anti-human IgG-Fc PE fluorescent secondary antibody (Cat. No. 12-4998-82, eBioscience) was added. The mixture was incubated at 4° C. for 1 h, washed twice with PBS, and analyzed with a CytoFLEX flow cytometer (model: AOO-1-1102, Beckman). [0192]

| Binder | ADCC Reporter Bioassay (Jurkat-NFAT-luc-FcγRIIIa effector cells, luciferase) EC50 [1] [nM] | CDC cell killing rate (CCK-8, 5% human serum complement) IC50 [1] [nM] | binding result [2] |
| --- | --- | --- | --- |
| B1 | 0.795 | 5.87 |  |
| B2 |  |  | no binding |
| B3 | 0.0625 | 0.291 | no binding |
